The target in one experiment is T1, human recombinant M-CSF (human, UniProt P09603).
T1 sequence: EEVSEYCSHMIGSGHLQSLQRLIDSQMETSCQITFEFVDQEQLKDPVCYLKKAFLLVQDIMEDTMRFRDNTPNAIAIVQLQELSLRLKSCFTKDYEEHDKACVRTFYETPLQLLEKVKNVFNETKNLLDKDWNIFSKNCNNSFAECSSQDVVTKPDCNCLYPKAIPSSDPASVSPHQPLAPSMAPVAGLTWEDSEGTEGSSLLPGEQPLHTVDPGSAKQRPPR
In words: competition for binding of 125I-mouse G-CSF to COS cells transfected with pJ17.

For another experiment, the target named is T2, rat prolactin (rat, UniProt P01237).
T2 sequence: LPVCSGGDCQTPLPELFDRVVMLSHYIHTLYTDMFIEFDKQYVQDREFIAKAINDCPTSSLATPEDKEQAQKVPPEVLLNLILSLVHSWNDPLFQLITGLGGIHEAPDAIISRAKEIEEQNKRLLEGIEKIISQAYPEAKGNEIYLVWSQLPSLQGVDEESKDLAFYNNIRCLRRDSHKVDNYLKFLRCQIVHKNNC
The experiment is described as above.

Another experiment addresses T3, mouse recombinant IL-6 (mouse, UniProt P08505).
T3 sequence: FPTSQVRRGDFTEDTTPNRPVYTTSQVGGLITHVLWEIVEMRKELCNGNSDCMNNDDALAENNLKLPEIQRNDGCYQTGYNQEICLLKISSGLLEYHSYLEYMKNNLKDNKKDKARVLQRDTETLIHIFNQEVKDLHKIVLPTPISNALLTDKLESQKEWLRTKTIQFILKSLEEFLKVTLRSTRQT
The description is as above.

A further experiment deals with mouse recombinant GM-CSF (mouse, UniProt P01587). The description is as above.
The target in another experiment is mouse recombinant IL-3 (mouse, UniProt P01586). The experiment is described as above.
For experiment [1], the target named is mouse recombinant LIF (leukemia inhibitory factor) (mouse, UniProt P09056). Described as above.
The target in experiment [2] is T4, mouse recombinant G-CSF (granulocyte colony-stimulating factor) (mouse, UniProt P09920, radioiodinated (125I, IODO-GEN method) where used as the labelled ligand; unlabelled where used as competitor). In words: saturation binding of 125I-G-CSF to COS cells transfected with pJ17, Scatchard plot. The protocol: The binding of ^125I-G-CSF to COS or NFS-60 cells was examined. COS cells grown on 15 cm plates were transfected with 20 µg of the pI62 or pJ17 plasmid. Cells were split into 6-well microtiter plates at 12 hr after the glycerol shock, and grown for 60 hr in DMEM containing 10% FCS. Cells were washed with binding medium, and incubated at 4° C. for 4 hr with ^125I-G-CSF (10 pM to 1.2 nM range). To determine the non-specific binding of ^125I-G-CSF to cells, a large excess of unlabeled G-CSF (800 nM) was incubated in the assay mixture, and the radioactivity bound to the cells was subtracted from the total binding to yield the specific binding.
For binding of G-CSF to NFS-60 cells, 5.2 ×10^6 cells were incubated at 4° C. for 4 hr with various concentrations of ^125I-G-CSF in 0.3 ml of RPMI-1640 medium containing 10% FCS and 20 mM HEPES (pH 7.3). As mentioned above, 1 ×10^6 COS cells transfected with the plasmid pJ17 were incubated with various amounts of ^125I-G-CSF with or without an excess of unlabeled G-CSF. In the FIG. 3A, the specific binding (●) is shown as the difference between total (○) and non-specific binding (Δ). FIG. 3B is the scatchard plot of G-CSF binding data in COS cells, and FIG. 3C is the saturated binding of ^125I-G-CSF to NFS-60 cells, showing total (○), non-specific (Δ) and specific (●) binding to cells. […]

The target in experiment [3] is T4, mouse recombinant G-CSF (granulocyte …). The experiment in a line: saturation binding of 125I-G-CSF to NFS-60 cells, Scatchard plot. The protocol: For binding of G-CSF to NFS-60 cells, 5.2 ×10^6 cells were incubated at 4° C. for 4 hr with various concentrations of ^125I-G-CSF in 0.3 ml of RPMI-1640 medium containing 10% FCS and 20 mM HEPES (pH 7.3). As mentioned above, 1 ×10^6 COS cells transfected with the plasmid pJ17 were incubated with various amounts of ^125I-G-CSF with or without an excess of unlabeled G-CSF. In the FIG. 3A, the specific binding (●) is shown as the difference between total (○) and non-specific binding (Δ). FIG. 3B is the scatchard plot of G-CSF binding data in COS cells, and FIG. 3C is the saturated binding of ^125I-G-CSF to NFS-60 cells, showing total (○), non-specific (Δ) and specific (●) binding to cells. The specific binding is the difference between the total and non-specific binding. FIG. 3D is the scatchard plot of G-CSF binding data on NFS-60 cells. […] If the transfection efficiency of COS cells was assumed to be 10 to 20% (Sympayrac and Danna, Proc. Natl. Acad. Sci. USA, 78, 7575–7578 (1981)), the positively transfected COS cells probably expressed the recombinant G-CSF receptor at 1.5-3.0 ×10^5 molecules per cell.

Experiment [4] shares this target. In words: saturation binding of murine 125I-G-CSF to COS cells transfected with pHQ3, Scatchard plot.

A word on the Kd: it is the equilibrium constant for the complex coming apart.

B1: recombinant murine G-CSF receptor expressed on COS cells (plasmids pI62, pJ17) (receptor)
chain: CGHIEISPPVVRLGDPVLASCTISPNCSKLDQQAKILWRLQDEPIQPGDRQHHLPDGTQESLITLPHLNYTQAFLFCLVPWEDSVQLLDQAELHAGYPPASPSNLSCLMHLTTNSLVCQWEPGPETHLPTSFILKSFRSRADCQYQGDTIPDCVAKKRQNNCSIPRKNLLLYQYMAIWVQAENMLGSSESPKLCLDPMDVVKLEPPMLQALDIGPDVVSHQPGCLWLSWKPWKPSEYMEQECELRYQPQLKGANWTLVFHLPSSKDQFELCGLHQAPVYTLQMRCIRSSLPGFWSPWSPGLQLRPTMKAPTIRLDTWCQKKQLDPGTVSVQLFWKPTPLQEDSGQIQGYLLSWNSPDHQGQDIHLCNTTQLSCIFLLPSEAQNVTLVAYNKAGTSSPTTVVFLENEGPAVTGLHAMAQDLNTIWVDWEAPSLLPQGYLIEWEMSSPSYNNSYKSWMIEPNGNITGILLKDNINPFQLYRITVAPLYPGIVGPPVNVYTFAGERAPPHAPALHLKHVGTTWAQLEWVPEAPRLGMIPLTHYTIFWADAGDHSFSVTLNISLHDFVLKHLEPASLYHVYLMATSRAGSTNSTGLTLRTLDPSDLNIFLGILCLVLLSTTCVVTWLCCKRRGKTSFWSDVPDPAHSSLSSWLPTIMTEETFQLPSFWDSSVPSITKITELEEDKKPTHWDSESSGNGSLPALVQAYVLQGDPREISNQSQPPSRTGDQVLYGQVLESPTSPGVMQYIRSDSTQPLLGGPTPSPKSYENIWFHSRPQETFVPQPPNQEDDCVFGPPFDFPLFQGLQVHGVEEQGGF
Turning to B1, the binding result (with human recombinant M-CSF; in the experiment with rat prolactin; in the experiment with mouse recombinant IL-6; with mouse recombinant GM-CSF; with mouse recombinant IL-3; in [1]) was “no binding” in each case. In experiment [2], the equilibrium dissociation constant (Kd) turned out to be 0.29 nM.

B2: native murine G-CSF receptor on NFS-60 cells (receptor)
chain: CGHIEISPPVVRLGDPVLASCTISPNCSKLDQQAKILWRLQDEPIQPGDRQHHLPDGTQESLITLPHLNYTQAFLFCLVPWEDSVQLLDQAELHAGYPPASPSNLSCLMHLTTNSLVCQWEPGPETHLPTSFILKSFRSRADCQYQGDTIPDCVAKKRQNNCSIPRKNLLLYQYMAIWVQAENMLGSSESPKLCLDPMDVVKLEPPMLQALDIGPDVVSHQPGCLWLSWKPWKPSEYMEQECELRYQPQLKGANWTLVFHLPSSKDQFELCGLHQAPVYTLQMRCIRSSLPGFWSPWSPGLQLRPTMKAPTIRLDTWCQKKQLDPGTVSVQLFWKPTPLQEDSGQIQGYLLSWNSPDHQGQDIHLCNTTQLSCIFLLPSEAQNVTLVAYNKAGTSSPTTVVFLENEGPAVTGLHAMAQDLNTIWVDWEAPSLLPQGYLIEWEMSSPSYNNSYKSWMIEPNGNITGILLKDNINPFQLYRITVAPLYPGIVGPPVNVYTFAGERAPPHAPALHLKHVGTTWAQLEWVPEAPRLGMIPLTHYTIFWADAGDHSFSVTLNISLHDFVLKHLEPASLYHVYLMATSRAGSTNSTGLTLRTLDPSDLNIFLGILCLVLLSTTCVVTWLCCKRRGKTSFWSDVPDPAHSSLSSWLPTIMTEETFQLPSFWDSSVPSITKITELEEDKKPTHWDSESSGNGSLPALVQAYVLQGDPREISNQSQPPSRTGDQVLYGQVLESPTSPGVMQYIRSDSTQPLLGGPTPSPKSYENIWFHSRPQETFVPQPPNQEDDCVFGPPFDFPLFQGLQVHGVEEQGGF
B2: the Kd in experiment [3] was found to be 0.18 nM.

B3: human G-CSF receptor, class 1 (plasmid pHQ3), expressed on COS cells (receptor)
chain: EECGHISVSAPIVHLGDPITASCIIKQNCSHLDPEPQILWRLGAELQPGGRQQRLSDGTQESIITLPHLNHTQAFLSCCLNWGNSLQILDQVELRAGYPPAIPHNLSCLMNLTTSSLICQWEPGPETHLPTSFTLKSFKSRGNCQTQGDSILDCVPKDGQSHCCIPRKHLLLYQNMGIWVQAENALGTSMSPQLCLDPMDVVKLEPPMLRTMDPSPEAAPPQAGCLQLCWEPWQPGLHINQKCELRHKPQRGEASWALVGPLPLEALQYELCGLLPATAYTLQIRCIRWPLPGHWSDWSPSLELRTTERAPTVRLDTWWRQRQLDPRTVQLFWKPVPLEEDSGRIQGYVVSWRPSGQAGAILPLCNTTELSCTFHLPSEAQEVALVAYNSAGTSRPTPVVFSESRGPALTRLHAMARDPHSLWVGWEPPNPWPQGYVIEWGLGPPSASNSNKTWRMEQNGRATGFLLKENIRPFQLYEIIVTPLYQDTMGPSQHVYAYSQEMAPSHAPELHLKHIGKTWAQLEWVPEPPELGKSPLTHYTIFWTNAQNQSFSAILNASSRGFVLHGLEPASLYHIHLMAASQAGATNSTVLTLMTLTPEGSELHIILGLFGLLLLLTCLCGTAWLCCSPNRKNPLWPSVPDPAHSSLGSWVPTIMEEDAFQLPGLGTPPITKLTVLEEDEKKPVPWESHNSSETCGLPTLVQTYVLQGDPRAVSTQPQSQSGTSDQVLYGQLLGSPTSPGPGHYLRCDSTQPLLAGLTPSPKSYENLWFQASPLGTLVTPAPSQEDDCVFGPLLNFPLLQGIRVHGMEALGSF
As for B3, the Kd in experiment [4] came out at 0.55 nM.

The values above are taken from US5574136, “DNA encoding granulocyte colony-stimulating factor receptor and protein thereof” (Osaka Bioscience Institute, dated 1996).
